Source: patent US20100298541A1 (published 2010)

Target: SYNAGIS®
Test: SPR (BIAcore 3000), SYNAGIS® amine-coupled to the chip, equilibrium binding of SynBP01

Chain of SYNAGIS® (VH, as listed by the source, chain 1 of 2): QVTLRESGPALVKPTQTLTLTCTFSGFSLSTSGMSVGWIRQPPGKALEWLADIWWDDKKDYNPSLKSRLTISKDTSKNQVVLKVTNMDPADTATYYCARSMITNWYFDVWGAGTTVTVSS
Chain of SYNAGIS® (VL, as listed by the source, chain 2 of 2): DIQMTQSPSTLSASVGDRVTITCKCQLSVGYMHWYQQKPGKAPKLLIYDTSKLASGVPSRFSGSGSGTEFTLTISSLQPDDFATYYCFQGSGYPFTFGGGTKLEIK

| Binder | Kd [µM] |
| --- | --- |
| SynBP01 (designed binder, also called SYNAGIS® specific Tn3 scaffold) AAIEVKDVTDTTALITWSPPSVLVGYTIELTYGIKDVPGDRTTIDLTEDENQYSIGNLKPDTEYEVSLISVTEFGRRRSKETFTTGGGTLEHHHHHH | 16 |

Target: T1, TRAIL-R2/Fc fusion protein (R & D Systems) (UniProt O14763 54-182, limits assumed)
T1 construct: not shown: Fc part of the bought fusion; captured with anti-human IgG Fc antibody
Test: TRAIL-R2 phage ELISA

T1 sequence (O14763 54-182 limits assumed): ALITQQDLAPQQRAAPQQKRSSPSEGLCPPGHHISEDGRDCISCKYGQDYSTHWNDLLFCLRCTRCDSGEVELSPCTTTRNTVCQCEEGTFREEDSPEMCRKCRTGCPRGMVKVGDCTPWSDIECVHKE

| Binder | binding result |
| --- | --- |
| 2H6 (designed binder) IEVKDVTDTTALITWATPSVFDSHIEGCELTYGIKDVPGDRTTIDLTEDENQYSIGNLKPDTEYEVSLICWKHHGDAWSKETFTT | binds |
| 6F11 (designed binder) IEVKDVTDTTALITWSPSVARMLETGCELTYGIKDVPGDRTTIDLTEDENQYSIGNLKPDTEYEVSLICITLCGRGVSKETFTT | binds |
| 6C7 (designed binder, Lower case q is a TAG codon read as glutamine) IEVKDVTDTTALITWAKPMSCSGYIQGCELTYGIKDVPGDRTTIDLTEDENQYSIGNLKPDTEYEVSLICAKLTGWLCSKETFTT | binds |
| 10D9 (designed binder, Lower case q in the BC loop is a TAG codon read as glutamine in the suppressor strain) IEVKDVTDTTALITWSPPLFCCQKTGCELTYGIKDVPGDRTTIDLTEDENQYSIGNLKPDTEYEVSLICFKLTGFLYSKETFTT | binds |
| 7G11 (designed binder) IEVKDVTDTTALITWAKPSIVNGFISGCELTYGIKDVPGDRTTIDLTEDENQYSIGNLKPDTEYEVSLICDKCFGAMKSKETFTT | binds |
| 2F4 (designed binder) IEVKDVTDTTALITWSPCIMVCLRTGCELTYGIKDVPGDRTTIDLTEDENQYSIGNLKPDTEYEVSLICRRGDMSGAPAKETFTT | binds |
| 5B10 (designed binder) IEVKDVTDTTALITWSPCLFVCLRTGCELTYGIKDVPGDRTTIDLTEDENQYSIGNLKPDTEYEVSLICRRGDMSGAPAKETFTT | binds |
| 8B3 (designed binder) IEVKDVTDTTALITWSPPEYAFYYTGCELTYGIKDVPGDRTTIDLTEDENQYSIGNLKPDTEYEVSLICVKNCGLFSNPAKETFTT | binds |

Target: SYNAGIS®
Test: SPR (BIAcore 3000), SYNAGIS® immobilized, both injected at 1 µM

| Binder | fold increase in total response units compared to SynBP01 [fold] |
| --- | --- |
| SynBP01-Fc (Fc fusion, Chimeric fusion made in 293EBNA cells from pOE-SynBP01; Called bivalent; also called SynBP01 scaffold fused to an Fc region; not shown: CH2 and CH3 domains of IgG1 Fc from the pOE-Fc vector) IEVKDVTDTTALITWSPPSVLVGYTIELTYGIKDVPGDRTTIDLTEDENQYSIGNLKPDTEYEVSLISVTEFGRRRSKETFTT | ~6 |

Target: T1, TRAIL-R2/Fc fusion protein (R & D …)
Test: Attana biosensor, TRAIL-R2 chip
Description: A qualitative comparison of binding by monomeric 1C12, 1C12-Fc and 1C12-Cκ/1C12-IGHG1 proteins was performed by injecting samples of each of these proteins over a TRAIL-R2 chip on an Attana biosensor instrument.

| Binder | binding result |
| --- | --- |
| D1-Cκ/D1-IGHG1 (other, Control two chain tetravalent construct of D1; not shown: human C-kappa region (constant region of an antibody kappa light chain); heavy chain constant region of human IgG1 (IGHG1)) light: IEVKDVTDTTALITWSPGERIWMFTGCELTYGIKDVPGDRTTIDLTEDENQYSIGNLKPDTEYEVSLICPNYERISNPAKETFTTGGGTPT heavy: IEVKDVTDTTALITWSPGERIWMFTGCELTYGIKDVPGDRTTIDLTEDENQYSIGNLKPDTEYEVSLICPNYERISNPAKETFTTGGGTPT | no binding |
| D1-Fc (Fc fusion, not shown: hinge and Fc region of human IgG1) IEVKDVTDTTALITWSPGERIWMFTGCELTYGIKDVPGDRTTIDLTEDENQYSIGNLKPDTEYEVSLICPNYERISNPAKETFTTGA | no binding |

Target: T1, TRAIL-R2/Fc fusion protein (R & D …)
Test: TRAIL-R2 phage ELISA
Remark: another data set of the same source

| Binder | binding result |
| --- | --- |
| 1B12 (designed binder) IEVKDVTDTTALITWAKPRQGGSNISGCELTYGIKDVPGDRTTIDLYHKGLHYSIGNLKPDTEYEVSLICPKMTGYTYSKETFTT | binds |
| 3B11 (designed binder) IEVKDVTDTTALITWSPCQLLALITGCELTYGIKDVPGDRTTIDLNSRHYHYSIGNLKPDTEYEVSLICYTSTGQRSNPAKETFTT | binds |
| 2A11 (designed binder) IEVKDVTDTTALITWSPPFRAGHVTGCELTYGIKDVPGDRTTIDLVTARCQYSIGNLKPDTEYEVSLICTTGNGLRSNPAKETFTT | binds |
| 2F08 (designed binder) IEVKDVTDTTALITWSHAGGIRIGCELTYGIKDVPGDRTTIDLHVWQVYYSIGNLKPDTEYEVSLICMTPYLLGNPAKETFTT | binds |
| 2G03 (designed binder) IEVKDVTDTTALITWSPGPLLRHTTGCELTYGIKDVPGDRTTIDLRPIPRAYSIGNLKPDTEYEVSLICRNRPQQSNPAKETFTT | binds |
| 2F02 (designed binder) IEVKDVTDTTALITWSPSRGGTSLTGCELTYGIKDVPGDRTTIDLDQVRATYSIGNLKPDTEYEVSLICHTNSGQPSNPAKETFTT | binds |
| 1B04 (designed binder) IEVKDVTDTTALITWSPSHGVESSTGCELTYGIKDVPGDRTTIDLHGLQRVYSIGNLKPDTEYEVSLICAKICGHLVSKETFTT | binds |
| 1H05 (designed binder) IEVKDVTDTTALITWSPGMFDQVRTGCELTYGIKDVPGDRTTIDLGKYWERYSIGNLKPDTEYEVSLICRNQYGQHQSKETFTT | binds |
| 2A12 (designed binder) IEVKDVTDTTALITWSPCCQEFTLTGCELTYGIKDVPGDRTTIDLHNHHHHYSIGNLKPDTEYEVSLICITDAGNKSNPAKETFTT | binds |
| 2B04 (designed binder, also called 2B4) IEVKDVTDTTALITWAPPMLTDSEINGCELTYGIKDVPGDRTTIDLTSSYWSYSIGNLKPDTEYEVSLICSTLRRNAISKETFTT | binds |
| 1E03 (designed binder, also called 1E3) IEVKDVTDTTALITWAAPFFGSSYISGCELTYGIKDVPGDRTTIDLHYYVTRYSIGNLKPDTEYEVSLICVNLSGHMPSKETFTT | binds |
| 1A03 (designed binder) IEVKDVTDTTALITWAPPPFSNSCIIGCELTYGIKDVPGDRTTIDLRPGRASYSIGNLKPDTEYEVSLICSTGTGLPSNPAKETFTT | binds |
| 1C10 (designed binder) IEVKDVTDTTALITWSPCCPYDRYTGCELTYGIKDVPGDRTTIDLQSSRSHYSIGNLKPDTEYEVSLICITTFGHVSNPAKETFTT | binds |
| 1E05 (designed binder) IEVKDVTDTTALITWSPCSPCQLVTGCELTYGIKDVPGDRTTIDLSCTRAKYSIGNLKPDTEYEVSLICINKLGDTSNPAKETFTT | binds |
| 1G11 (designed binder) IEVKDVTDTTALITWSWAQANPGGCELTYGIKDVPGDRTTIDLWHSITFYSIGNLKPDTEYEVSLICKTKVQSSNPAKETFTT | binds |
| 1D8 (designed binder) IEVKDVTDTTALITWSPCQMLSSLTGCELTYGIKDVPGDRTTIDLNIERPKYSIGNLKPDTEYEVSLICFTMTGYRSNPAKETFTT | binds |
| 1C06 (designed binder) IEVKDVTDTTALITWSPRMYTWIQTGCELTYGIKDVPGDRTTIDLTHLSGSYSIGNLKPDTEYEVSLICLKLTRTHISKETFTT | binds |
| 1C12 (designed binder, also called monomeric 1C12) IEVKDVTDTTALITWAKPEKWDGSIYGCELTYGIKDVPGDRTTIDLNSRHTAYSIGNLKPDTEYEVSLICFTPYGAKSNPAKETFTT | binds |
| 2D3 (designed binder) IEVKDVTDTTALITWSPGGFQKITTGCELTYGIKDVPGDRTTIDLVNRRNHYSIGNLKPDTEYEVSLICLTYKARAISKETFTT | binds |

Target: T1, TRAIL-R2/Fc fusion protein (R & D …)
Test: SPR (BIAcore), TRAIL-R2/Fc captured on goat anti-human-Fc IgG, 5E5 injected; from kon and koff
Description: Goat anti-human-Fc IgG was immobilized at a density of ˜7700 RUs onto a flow cell of a CM5 Biacore sensor chip surfaces using a standard amino coupling protocol (BIAcore, Inc.). Separately, a blank surface was also prepared on the same chip using the identical coupling protocol, minus the protein. This blank surface was used as a reference cell throughout the experiment, and served to correct for both non-specific binding and certain housekeeping artifacts.
After baseline stabilization, solutions of the Tn3 clone 5E5 (Table 7) were injected over both the captured ligand and control surfaces. Between injections, the Fc-capture surface was regenerated with two 1 min. injections of 10 mM Gly, pH2.
Several buffer and control protein injections were also interspersed throughout the injection series. Later, these buffer injections were used, along with the reference cell data, to correct the raw data sets for injection artifacts and/or non-specific ‘binding’ through a technique commonly referred to as “double-referencing.” (Myszka, D. G. (1999) J. Mol. Recognit. 12, pp. 279-284). Sensorgram overlays of the fully corrected data were generated using the BIAevaluation 4.1 software (BIAcore, Inc, Uppsala, Sweden). The affinity of 5E5 for binding to TRAIL-R2 was calculated by measuring the kₒₙ and koff.values in the BIAevaluation software for the sensorgram shown in FIG. 13.

| Binder | Kd [µM] |
| --- | --- |
| 5E5 (designed binder, also called TRAIL-R2 specific clone 5E5) IEVKDVTDTTALITWSLAPGYRLGCELTYGIKDVPGDRTTIDLTEDENQYSIGNLKPDTEYEVSLICVKLCMRGNPAKETFTT | ~0.7 |
